Substitutions are numbered along the chain they refer to. One block for each binder: values may come before it.
What was measured:
[1] = molecular target: T1, biotinylated human NKG2C/CD94 heterodimer (extracellular domains, Fc fusions) (human, UniProt P26717 94-231; Q13241 32-179, biotinylated); assay: BLI (Octet), summary of the examples
T1 construct: not shown: N-terminal Fc (hole)
Procedure: The antibodies were evaluated for binding to (1) human NKG2A, (2) human NKG2C, and (3) cyno NKG2A. Bivalent interaction of binders to biotinylated human NKG2A (see Example 1), biotinylated human NKG2C/CD94 heterodimer, or biotinylated cyno NKG2A/CD94 heterodimer immobilized on a streptavidin biosensor was monitored using Octet (Pall ForteBio) instrument. For these assays, human NKG2C/CD94 and cyno NKG2A/CD94 were prepared using the procedure as described in Example 1. Similarly, the extracellular domain of human NKG2C was expressed and purified from HEK293 cells as heterodimer with CD94 as Fc fusions. The extracellular domain of NKG2C used for selection campaigns encompassed amino acid sequence Ile94-Leu231 (Accession No. P26717-1; SEQ ID NO: 75). The gene encoding CD94 (Accession No. Q13241-1, SEQ ID NO:76), Lys33-Ile159 was synthesized from IDT and cloned into mammalian expression vector as an N-terminal Fc (hole) fusion. Plasmids encoding NKG2C-Fc fusion and CD94-Fc fusion were co-transfected into HEK293T cells using standard procedures. NKG2C/CD94 heterodimer was purified from cell supernatant using Protein A resins. Similar approach was used to obtain Cynomolgus NKG2A protein. Specifically, extracellular domain of Cynomolgus NKG2A contained amino acid Pro 94-Leu 233. […]

[2] = molecular target: T2, NKG2A expressed on KHYG-1 cells (endogenous) (human, UniProt P26715 1-233; Q13241 1-179); assay: flow cytometry on KHYG-1 cells expressing endogenous NKG2A
T2 construct: whole, on cells; Surface NKG2A copy number of approximately 10-20K; also called KHYG-1 cells expressing endogenous NKG2A; NKG2A-expressing cells
T2 sequence (P26715 whole entry, chain 1 of 2): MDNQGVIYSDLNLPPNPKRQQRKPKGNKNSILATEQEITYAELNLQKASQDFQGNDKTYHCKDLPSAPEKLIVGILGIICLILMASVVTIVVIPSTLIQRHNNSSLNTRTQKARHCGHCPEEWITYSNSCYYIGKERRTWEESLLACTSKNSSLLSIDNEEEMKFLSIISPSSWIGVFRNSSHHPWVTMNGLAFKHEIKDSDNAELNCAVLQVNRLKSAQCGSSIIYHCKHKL
T2 sequence (Q13241 whole entry, chain 2 of 2): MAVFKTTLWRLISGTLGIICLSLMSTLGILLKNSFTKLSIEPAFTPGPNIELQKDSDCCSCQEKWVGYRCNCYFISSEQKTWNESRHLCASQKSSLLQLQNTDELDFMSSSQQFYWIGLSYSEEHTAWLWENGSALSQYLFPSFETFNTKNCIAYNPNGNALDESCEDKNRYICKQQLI
Procedure: Antibodies that were selected for binding to NKG2A, for example, such as those described in Examples 1 and 2, were evaluated for binding to cells that express NKG2A.
Cells were harvested at 70-90% confluence on the day of the assay. Cells were collected by centrifugation at 200×g for 5 minutes and media was removed. Cells were resuspended at 2×10⁶ cells per mL in cold PBS. […] 50 μL per well of the antibody dilution was plated in a 96 well V-bottom plate (Costar 3897). 50 μL per well of cell suspension was added. Plates were placed at 4° C. for 45-60 minutes.

[3] = molecular target: T3, biotinylated cyno NKG2A/CD94 heterodimer (extracellular domains) (cynomolgus, UniProt Q9MZJ3 94-233; Q9MZK9 32-179, biotinylated); assay: BLI (Octet), bivalent
T3 construct: also called Cynomolgus NKG2A protein; not shown: fusion partner/tags ('similar approach' to the human proteins); fusion partner ('similar approach')
T3 sequence (Q9MZJ3 other isoform, or with tags, fused parts or gaps, chain 1 of 2): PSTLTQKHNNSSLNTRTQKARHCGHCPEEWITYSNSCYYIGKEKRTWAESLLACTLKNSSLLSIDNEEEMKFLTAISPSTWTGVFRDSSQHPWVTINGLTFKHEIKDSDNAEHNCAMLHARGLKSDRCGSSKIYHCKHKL
T3 sequence (Q9MZK9 32-179, chain 2 of 2): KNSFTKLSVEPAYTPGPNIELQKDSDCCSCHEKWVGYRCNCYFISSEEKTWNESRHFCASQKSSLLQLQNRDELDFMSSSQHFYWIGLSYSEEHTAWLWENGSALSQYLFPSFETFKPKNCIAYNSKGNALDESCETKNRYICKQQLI
Procedure: A total of 58 binders formatted as IgG antibodies from phage display as described in Example 1 were further tested for binding.
The antibodies were evaluated for binding to (1) human NKG2A, (2) human NKG2C, and (3) cyno NKG2A. Bivalent interaction of binders to biotinylated human NKG2A (see Example 1), biotinylated human NKG2C/CD94 heterodimer, or biotinylated cyno NKG2A/CD94 heterodimer immobilized on a streptavidin biosensor was monitored using Octet (Pall ForteBio) instrument. For these assays, human NKG2C/CD94 and cyno NKG2A/CD94 were prepared using the procedure as described in Example 1. Similarly, the extracellular domain of human NKG2C was expressed and purified from HEK293 cells as heterodimer with CD94 as Fc fusions. The extracellular domain of NKG2C used for selection campaigns encompassed amino acid sequence Ile94-Leu231 (Accession No. P26717-1; SEQ ID NO: 75). The gene encoding CD94 (Accession No. Q13241-1, SEQ ID NO:76), Lys33-Ile159 was synthesized from IDT and cloned into mammalian expression vector as an N-terminal Fc (hole) fusion. Plasmids encoding NKG2C-Fc fusion and CD94-Fc fusion were co-transfected into HEK293T cells using standard procedures. NKG2C/CD94 heterodimer was purified from cell supernatant using Protein A resins. Similar approach was used to obtain Cynomolgus NKG2A protein. Specifically, extracellular domain of Cynomolgus NKG2A contained amino acid Pro 94-Leu 233. […] Extracellular domain of Cynomolgus CD94 contained amino acid residues Lys 33-Ile 179 (Accession No. Q68VD4-1; SEQ ID NO: 78).

Cyno PD-L1 = Cyno PD-L1 (cyno, UniProt G7PSE7 19-238); assay: SPR (Carterra), antibody on chip, soluble antigen
Cyno PD-L1, sequence (G7PSE7 entry or part of it limits assumed): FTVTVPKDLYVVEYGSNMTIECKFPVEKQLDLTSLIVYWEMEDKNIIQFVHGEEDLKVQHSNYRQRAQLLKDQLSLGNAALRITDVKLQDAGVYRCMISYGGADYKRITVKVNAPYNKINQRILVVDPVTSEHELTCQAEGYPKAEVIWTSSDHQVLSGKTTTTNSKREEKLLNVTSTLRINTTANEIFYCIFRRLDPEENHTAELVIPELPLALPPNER

[4] = molecular target: T4, Human NKG2A & CD94 with mouse IgG2a Fc tag (AcroBiosystems) (human, UniProt P26715 94-233; Q13241 32-179, limits assumed); assay: SPR (Carterra), antibody on chip, soluble antigen
T4 construct: Bought soluble antigen of the Carterra assay; also called hNKG2A; not shown: mouse IgG2a Fc tag
T4 sequence (P26715 94-233 limits assumed, chain 1 of 2): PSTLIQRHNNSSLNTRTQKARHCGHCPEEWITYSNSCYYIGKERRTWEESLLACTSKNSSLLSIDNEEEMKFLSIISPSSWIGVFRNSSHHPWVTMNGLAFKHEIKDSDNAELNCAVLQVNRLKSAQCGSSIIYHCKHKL
T4 sequence (Q13241 32-179 limits assumed, chain 2 of 2): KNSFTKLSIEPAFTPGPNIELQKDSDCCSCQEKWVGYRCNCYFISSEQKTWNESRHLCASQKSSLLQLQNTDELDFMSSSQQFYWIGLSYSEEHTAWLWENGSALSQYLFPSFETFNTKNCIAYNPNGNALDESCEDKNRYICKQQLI

[5] = molecular target: T5, Human PD-L1 with His tag (AcroBiosystems) (human, UniProt Q9NZQ7 19-238); assay: SPR (Carterra), antibody on chip, soluble antigen
T5 construct: Bought protein; also called hPD-L1; not shown: His tag
T5 sequence (Q9NZQ7 19-238 limits assumed): as the sequence (G7PSE7 entry or part of it limits assumed) above, with T33A, S34A, N62S, Q68R, R82Q, L173F, A185T, I192T, L215H counted along it

[6] = molecular target: T2, NKG2A expressed on KHYG-1 cells …; assay: flow cytometry competition; inhibition of HLA-E tetramer binding to KHYG-1 cells
Procedure: 15 μL per well of binder dilution at 2× concentration was plated in a 96-well plate (Costar 3897). 15 μL per well of cell suspension at 5×10⁶ cells per mL was added. Plates were placed at 4° C. for 30 minutes. Following the incubation, 5 μL per well of Fc block (BD Pharmingen Cat #564220) was added at a final concentration of 500 ng per well. Plates were placed at 4° C. for 10 minutes. […] Plates were placed at 4° C. for 1 hour. Following the incubation, 100 μL per well of PBS was added and plate was centrifuged at 400×g for 7 minutes. Supernatant was removed by flicking the plate. Cells were resuspended in 50 μL per well of PBS and analyzed by flow cytometry (Intellicyt).

[7] = molecular target: T2, NKG2A expressed on KHYG-1 cells …; assay: flow cytometry on KHYG-1 cells expressing endogenous NKG2A; remark: listed apart in the source
Procedure: (§1) Cells were collected by centrifugation at 400×g for 7 minutes and primary antibody was removed. 50 μL per well of AF488 goat anti human IgG Fab (Jackson Immuno Research 109-547-003) at 1:100 dilution was added. Plates were placed at 4° C. for 30 minutes.
(§2) Cells were collected by centrifugation at 400×g for 7 minutes and secondary antibody was removed. Cells were resuspended in 50 μL per well of PBS and analyzed by flow cytometry. Binding curves were calculated using the mean fluorescence intensity (MFI) of the FITC fluorescence signal on the cells. Bispecific antibody binding was evaluated in KHYG-1 cells expressing endogenous NKG2A and in MC/CAR cells expressing PD-L1. Cells were harvested and assayed for binding as described above.

PD-L1 expressed on cells [8] = molecular target: T6, PD-L1 expressed on cells (UniProt Q9NZQ7 19-290, limits assumed); assay: cell-based or functional assay
T6 sequence (Q9NZQ7 19-290 limits assumed): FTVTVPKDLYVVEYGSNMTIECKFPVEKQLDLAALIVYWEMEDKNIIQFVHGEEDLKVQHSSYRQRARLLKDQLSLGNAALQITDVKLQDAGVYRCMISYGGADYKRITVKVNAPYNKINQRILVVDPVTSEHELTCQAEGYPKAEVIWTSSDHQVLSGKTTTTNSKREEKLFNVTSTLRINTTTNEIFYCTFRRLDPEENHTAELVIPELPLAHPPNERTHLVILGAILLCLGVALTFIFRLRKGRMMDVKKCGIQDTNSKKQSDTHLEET

PD-L1 expressed on cells [9] = molecular target: T6, PD-L1 expressed on cells; assay: flow cytometry on MC/CAR cells expressing PD-L1
Procedure: as §1, §2

T1 sequence (P26717 other isoform, or with tags, fused parts or gaps, chain 1 of 2): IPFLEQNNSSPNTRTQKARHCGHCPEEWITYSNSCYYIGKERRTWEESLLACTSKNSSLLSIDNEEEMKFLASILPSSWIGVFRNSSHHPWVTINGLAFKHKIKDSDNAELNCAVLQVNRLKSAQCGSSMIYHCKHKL
T1 sequence (Q13241 32-179, chain 2 of 2): as the sequence (Q13241 32-179 limits assumed, chain 2 of 2) above

binding result [1]: no binding | EC50 [2]: 0.303 nM
B1: Antibody Clone A3 (antibody, human IgG1, kappa, V domains shown)
VH: EVQLVESGGGLVQPGGSLRLSCAASGFTFSSYYIHWVRQAPGKGLEWVASISPYDGYTDYADSVKGRFTISADTSKNTAYLQMNSLRAEDTAVYYCARSSDFSPWTSSGGMDYWGQGTLVTVSS
VL: DIQMTQSPSSLSASVGDRVTITCRASQSVSSAVAWYQQKPGKAPKLLIYSASSLYSGVPSRFSGSRSGTDFTLTISSLQPEDFATYYCQQYGSSLRTFGQGTKVEIKR

binding result [3]: no binding | binding result [1]: no binding | EC50 [2]: 37.5 nM
B2: Antibody Clone A2 (antibody, human IgG1, kappa, V domains shown)
VH: B1 VH with I51Y, S52V, Y54E, S103I
VL: B1 VL with S31R, Y55H, L95A

Kd (Cyno PD-L1): 0.12 nM | koff (Cyno PD-L1): 5e-05 s⁻¹ | kon (Cyno PD-L1): 480000 M⁻¹ s⁻¹ | Kd [4]: 0.15 nM | koff [4]: 5e-05 s⁻¹ | kon [4]: 360000 M⁻¹ s⁻¹ | Kd [5]: 0.15 nM | koff [5]: 7e-05 s⁻¹ | kon [5]: 470000 M⁻¹ s⁻¹ | EC50 [6]: 0.36 nM | EC50 [7]: 0.149 nM | IC50 of inhibiting PD-1/PD-L1 interaction in PD-L1+MDA-MB-231 cells (PD-1/PD-L1 Signaling Bioassay, chemiluminescent signal) (PD-L1 expressed on cells [8]): 0.689 nM | EC50 (PD-L1 expressed on cells [9]): 6.49 nM
B3: P12 × A2A2 (1 × 2 format) (bispecific antibody)
heavy 1: DIQMTQSPSSLSASVGDRVTITCRASQSVSSAVAWYQQKPGKAPKLLIYSASSLYSGVPSRFSGSRSGTDFTLTISSLQPEDFATYYCQQFMLEPITFGQGTKVEIKGQPREPQVCTLPPSRDELTKNQVSLTCLVRGFYPSDIAVEWESNGQPENNYKTTPPVLDSDGSFFLYSKLTVDKSRWQQGNVFSCSVMHEALHNHYTQKSLSLSPGKDKTHTCPPCPAPEAAGGPSVFLFPPKPKDTLMISRTPEVTCVVVDVSHEDPEVKFNWYVDGVEVHNAKTKPREEQYNSTYRVVSVLTVLHQDWLNGKEYKCKVSNKALKAPIEKTISKAKGQPREPQVYTLPPSREEMTKNQVSLSCAVKGFYPSDIAVEWESNGQPENNYKTTPPVLDSDGSFFLVSKLTVDKSRWQQGNVFSCSVMHEALHNHYTQKSLSLSPGK
light 1: EVQLVESGGGLVQPGGSLRLSCAASGFTFSSYYIHWVRQAPGKGLEWVATINSRGGFTLYADSVKGRFTISADTSKNTAYLQMNSLRAEDTAVYYCARGYTLTPVLDYWGQGTLVTVSSAQPREPQVYTLPPCRDWLTKNQVSLTCLVKGFYPSDIAVEWESNGQPENNYKTTPPVLDSDGSFFLYSKLTVDKSRWQQGNVFSCSVMHEALHNHYTQKSLSLSPGK
heavy 2: not shown
light 2: EVQLVESGGGLVQPGGSLRLSCAASGFTFSSYYIHWVRQAPGKGLEWVASYVPEDGYTDYADSVKGRFTISADTSKNTAYLQMNSLRAEDTAVYYCARSSDFIPWTSSGGMDYWGQGTLVTVSSASTKGPSVFPLAPSSKSTSGGTAALGCLVKDYFPEPVTVSWNSGALTSGVHTFPAVLQSSGLYSLSSVVTVPSSSLGTQTYICNVNHKPSNTKVDKKVEPKSC
notes: One PD-L1 site, two NKG2A sites; also called P12×A2A2, sFc; P12 × A2A2 sFc

Kd (Cyno PD-L1): 0.13 nM | koff (Cyno PD-L1): 6e-05 s⁻¹ | kon (Cyno PD-L1): 470000 M⁻¹ s⁻¹ | Kd [4]: 0.34 nM | koff [4]: 9e-05 s⁻¹ | kon [4]: 270000 M⁻¹ s⁻¹ | Kd [5]: 0.24 nM | koff [5]: 9e-05 s⁻¹ | kon [5]: 380000 M⁻¹ s⁻¹ | EC50 [6]: 0.42 nM | EC50 [7]: 0.168 nM | IC50 of inhibiting PD-1/PD-L1 interaction in PD-L1+MDA-MB-231 cells (PD-1/PD-L1 Signaling Bioassay, chemiluminescent signal) (PD-L1 expressed on cells [8]): 0.567 nM | EC50 (PD-L1 expressed on cells [9]): 1.76 nM
B4: P12 × A11A11 (1 × 2 format) (bispecific antibody)
heavy 1: B3 heavy 1
light 1: B3 light 1
heavy 2: not shown
light 2: EVQLVESGGGLVQPGGSLRLSCAASGFTFSWYYIHWVRQAPGKGLEWVAVIDPISSYTYYADSVKGRFTISADTSKNTAYLQMNSLRAEDTAVYYCARGFDRAMDYWGQGTLVTVSSASTKGPSVFPLAPSSKSTSGGTAALGCLVKDYFPEPVTVSWNSGALTSGVHTFPAVLQSSGLYSLSSVVTVPSSSLGTQTYICNVNHKPSNTKVDKKVEPKSC
notes: One PD-L1 site, two NKG2A sites; also called P12×A11A11, sFc; P12 × A11A11 sFc

EC50 [6]: 46.4 nM | EC50 [7]: 0.827 nM | IC50 of inhibiting PD-1/PD-L1 interaction in PD-L1+MDA-MB-231 cells (PD-1/PD-L1 Signaling Bioassay, chemiluminescent signal) (PD-L1 expressed on cells [8]): 0.714 nM | EC50 (PD-L1 expressed on cells [9]): 8.67 nM
B5: P12P12 × A2 (2 × 1 format) (bispecific antibody)
heavy 1: DIQMTQSPSSLSASVGDRVTITCRASQSVSSAVAWYQQKPGKAPKLLIYSASSLYSGVPSRFSGSRSGTDFTLTISSLQPEDFATYYCQQFMLEPITFGQGTKVEIKGQPREPQVCTLPPSRDELTKNQVSLTCLVRGFYPSDIAVEWESNGQPENNYKTTPPVLDSDGSFFLYSKLTVDKSRWQQGNVFSCSVMHEALHNHYTQKSLSLSPGKTASSGGSSSGDIQMTQSPSSLSASVGDRVTITCRASQSVSSAVAWYQQKPGKAPKLLIYSASSLYSGVPSRFSGSRSGTDFTLTISSLQPEDFATYYCQQFMLEPITFGQGTKVEIKGQPREPQVCTLPPSRDELTKNQVSLTCLVRGFYPSDIAVEWESNGQPENNYKTTPPVLDSDGSFFLYSKLTVDKSRWQQGNVFSCSVMHEALHNHYTQKSLSLSPGKDKTHTCPPCPAPEAAGGPSVFLFPPKPKDTLMISRTPEVTCVVVDVSHEDPEVKFNWYVDGVEVHNAKTKPREEQYNSTYRVVSVLTVLHQDWLNGKEYKCKVSNKALKAPIEKTISKAKGQPREPQVYTLPPSREEMTKNQVSLSCAVKGFYPSDIAVEWESNGQPENNYKTTPPVLDSDGSFFLVSKLTVDKSRWQQGNVFSCSVMHEALHNHYTQKSLSLSPGK
light 1: B3 light 1
heavy 2: not shown
light 2: B3 light 2
notes: Two PD-L1 sites, one NKG2A site; also called P12P12 × A2 sFc

EC50 [7]: 1.99 nM | IC50 of inhibiting PD-1/PD-L1 interaction in PD-L1+MDA-MB-231 cells (PD-1/PD-L1 Signaling Bioassay, chemiluminescent signal) (PD-L1 expressed on cells [8]): 0.405 nM | EC50 (PD-L1 expressed on cells [9]): 3.23 nM
B6: P12P12 × A11 (2 × 1 format) (bispecific antibody)
heavy 1: B5 heavy 1
light 1: B3 light 1
heavy 2: not shown
light 2: B4 light 2
notes: Two PD-L1 sites, one NKG2A site; also called P12P12 × A11 sFc
